Where a chain is given by its changes, count along the chain named.
Experiments:
[1] = Pharmacokinetics of 2B5.8.0 in Balb/C mice; type: in vivo
Method: Pharmacokinetic studies with mouse mAb 2B5.8.0 were carried out in Sprague Dawley rats and Balb/C mice. Male and female rats and mice were dosed intravenously or intraperitoneally (mice only) with a single dose of 4 mg/kg 2B5.8.0 and serum samples were analyzed using antigen capture based chemiluminescent MSD (Meso Scale Discovery) method (Meso Scale Discovery, Gaithersburg, Md.). Pharmacokinetic parameters were calculated by non-compartmental analysis using WinNonlin.
The following MSD assay was used to measure antibody concentration in rat and mouse serum. MSD streptavidin plates (Meso Scale Discovery, Gaithersburg, Md.) were washed with phosphate buffered saline containing 0.05% Tween-20 (Sigma, St. Louis, Mo.). Plates were blocked with 250 μL/well blocking solution (MSD Block, Meso Scale Discovery, diluted to 3% final concentration in PBS) for 1 hour, covered, with shaking (600 rpm) at room temperature. After washing, 70 μL of biotinylated PGE2 (Prostoglandin E2-biotinamide, Cayman Chemical, Ann Arbor, Mich., cat# 10006987, lot# 190831-191028, 0.01 ug/mL in assay buffer) was added to each well. The plates were covered and incubated with shaking (600 rpm) for 1 hour at room temperature
(§1) Prior to analysis, rat and mouse serum samples were thawed on ice, mixed gently, and centrifuged at 14,000 rpm for 3 minutes at 4° C. in an eppendorf centrifuge. Standard curve and control samples were prepared in rat and mouse serum. A Tecan Evo automated liquid handling station was used to dilute standard curve, high, medium, and low controls, and serum samples in assay buffer, keeping 1% final serum concentration constant. MSD plates were washed again and study samples, standard curve samples and blanks, as well as high, medium, and low controls were added (70 μL/well). The plates were covered, and incubated for 1 hour with shaking (600 rpm) at room temperature.
After incubation, the MSD plates were washed, and 70 μL of sulfo-tagged goat anti-mouse IgG (Meso Scale Discovery; diluted to 1 ug/mL in assay buffer) was added to each well. The MSD plates were covered, and incubated with shaking (600 rpm) for 1 hour at room temperature, then the plates were washed and developed with 2× Read Buffer (Meso Scale Discovery). Chemilumeniscence was measured within ten minutes on the MSD Sector Imager 6000.
(§2) Standard curves were analyzed using four-parameter logistic fit and sample concentrations were calculated by XLfit4 software version 2.2.1 Build 16, ([…].). Pharmacokinetic parameters were calculated for each animal using Winonlin software version 5.0.1 (Pharsight Corporation, Mountain View, Calif.) by noncompartmental analysis.
Male and female Balb/c mice (weighing approximately 0.025 kg) were purchased from Charles River Laboratories (Wilmington, Mass.). The animals were allowed food and water ad libitum. Blood samples were collected (0.2 mL from the rats via the tail vein and by cardiac puncture from the mice) at various timepoints (5 mice at each timepoint) allowed to clot for 30 minutes at room temperature, centrifuged for 3 minutes at 13,200 rpm, the serum transferred to eppendorf tubes and stored frozen at −80° C.

[2] = Pharmacokinetics of hu2B5.7 and hu2B5.4 in Sprague-Dawley rats; type: in vivo; settings: male Sprague-Dawley rats, IV 4 mg/kg
Method: Pharmacokinetic parameters were calculated by non-compartmental analysis using WinNonlin.
MSD streptavidin plates (Meso Scale Discovery) were washed with phosphate buffered saline containing 0.05% Tween-20 (diluted from 10×PBS, Abbott Bioresearch Center, Media Room, Worcester, Mass. and Tween-20, Sigma, St. Louis, Mo.). Plates were blocked with 250 μL/well blocking solution (MSD Block, Meso Scale Discovery, diluted to 3% final concentration in PBS) for 1 hour, covered, with shaking (600 rpm) at room temperature. After washing, 70 μL of biotinylated PGE2 (Prostoglandin E2-biotinamide, Cayman Chemical, Ann Arbor, Mich., cat# 10006987, lot# 190831-191028; 0.01 ug/mL in assay buffer) was added to each well. The plates were covered and incubated with shaking (600 rpm) for 1 hour at room temperature.
as §1, with “rat” for “rat and mouse”, “serum.” for “serum. A”
After incubation, the MSD plates were washed, and 70 μL sulfo-tagged goat anti-human IgG (Meso Scale Discovery; diluted to 1 ug/mL in assay buffer) was added to each well. The MSD plates were covered, and incubated with shaking (600 rpm) for 1 hour at room temperature, then the plates were washed and developed with 2× Read Buffer (Meso Scale Discovery). Chemilumeniscence was measured within ten minutes on the MSD Sector Imager 6000.
as §2
Surgically altered jugular vein cannulated, JVC) male Sprague-Dawley Rats (approximately seven weeks old, weighing 240-390 grams) were purchased from Charles River Laboratories (Wilmington, Mass.). The animals were housed in rooms maintained at constant temperature and humidity under a 12 hour light/dark cycle, fed with normal rodent chow and were allowed food and water ad libitum. Hydration and clinical conditions of the animals were monitored daily.
0.2 mL blood samples were collected from the rats at various timepoints, allowed to clot for 30 minutes at room temperature, centrifuged for 3 minutes at 13,200 rpm, the serum transferred to eppendorf tubes and stored frozen at −80° C.

[3] = mice, intraperitoneal, both sexes

B1: 2B5-8.0: recombinant anti-PGE2 antibody from solved 2B5 sequence; VH SEQ ID NO 42, VL SEQ ID NO 43 (antibody, V domains shown)
VH: QVQLQQSGPELVRPGSSVKISCKASGYTFTKYWLGWVKQRPGHGLEWIGDIYPGYDYTHYNEKFKDKATLTVDTSSSTAYMQLSSLTSEDSAIYYCARSDGSSTYWGQGTLVTVSA
VL: DVLMTQTPLSLPVSLGDQASISCTSSQNIVHSNGNTYLEWYLQRPGQSPKLLIYKVSNRFSGVPDRFSGSGSGTVFTLKISRVEAEDLGVYYCFQVSHVPYTFGGGTKLEIKR
- Cmax [1, 3]: 37 to 49 µg/mL
- bioavailability [1, 3]: 65.8-72.0%
- half-life [1, 3]: 13.8 to 16.1 days
- AUC0-∞ ([1]; mouse, female, IP 4 mg/kg): 16.1 mg·h/mL
- Cmax ([1]; mouse, female, IP 4 mg/kg): 49.4 µg/mL
- F (%) ([1]; mouse, female, IP 4 mg/kg): 65.8%
- MRT ([1]; mouse, female, IP 4 mg/kg): 19.3 days
- Tmax ([1]; mouse, female, IP 4 mg/kg): 1 days
- T½ ([1]; mouse, female, IP 4 mg/kg): 13.8 days
- AUC0-∞ ([1]; mouse, female, IV 4 mg/kg): 24.5 mg·h/mL
- CL ([1]; mouse, female, IV 4 mg/kg): 0.16 mL/h/kg
- MRT ([1]; mouse, female, IV 4 mg/kg): 22.8 days
- T½ ([1]; mouse, female, IV 4 mg/kg): 16.2 days
- Vss ([1]; mouse, female, IV 4 mg/kg): 89 mL/kg
- Vz ([1]; mouse, female, IV 4 mg/kg): 92 mL/kg
- AUC0-∞ ([1]; mouse, male, IP 4 mg/kg): 19.4 mg·h/mL
- Cmax ([1]; mouse, male, IP 4 mg/kg): 37.3 µg/mL
- F (%) ([1]; mouse, male, IP 4 mg/kg): 72%
- MRT ([1]; mouse, male, IP 4 mg/kg): 23.4 days
- Tmax ([1]; mouse, male, IP 4 mg/kg): 2 days
- T½ ([1]; mouse, male, IP 4 mg/kg): 16.1 days
- AUC0-∞ ([1]; mouse, male, IV 4 mg/kg): 26.9 mg·h/mL
- CL ([1]; mouse, male, IV 4 mg/kg): 0.15 mL/h/kg
- MRT ([1]; mouse, male, IV 4 mg/kg): 37.5 days
- T½ ([1]; mouse, male, IV 4 mg/kg): 26.3 days
- Vss ([1]; mouse, male, IV 4 mg/kg): 134 mL/kg
- Vz ([1]; mouse, male, IV 4 mg/kg): 135 mL/kg

B2: Hu2B5.4: humanized 2B5-8.0; VH SEQ ID NO 66, VL SEQ ID NO 67 (antibody, V domains shown)
VH: EVQLVQSGAEVKKPGASVKVSCKASGYTFTKYWLGWVRQAPGQGLEWIGDIYPGYDYTHYNEKFKDRATLTVDTSTSTAYMELSSLRSDDTAVYYCARSDGSSTYWGQGTLVTVSS
VL: B1 VL with S14T, L15P, D17E, Q18P, R44K, K50Q, V75D, L88V, L109V
- AUC0-∞ [2]: 11.8 ± 2.0 mg·h/mL
- CL [2]: 0.35 ± 0.07 mL/h/kg
- MRT [2]: 18.0 ± 6.0 days
- T½ [2]: 12.4 days
- Vss [2]: 145 ± 31.8 mL/kg
- Vz [2]: 143 ± 40.2 mL/kg

Source: patent publication US8624002B2, “Prostaglandin E2 binding proteins and uses thereof” (AbbVie, Inc., priority 2008, dated 2014)
